Reference: the supplement of paper PMC12042874
± gives the uncertainty stated by the source.

Experiment: amyloid nucleation score (Sup35N fusion, yeast selection) (log enrichment); library NNK3; higher = more nucleation; inactive = no reads after selection
Method in brief: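 For the nucleation score, DiMSum gave the log enrichment of output over input reads, centred on the mode score of non-aggregating sequences. Psi-negative yeast expressing Sup35N fused to peptides of 20 random codons were induced with 100 μM copper sulfate for 24 hours and grown 7 days at 30°C on medium lacking adenine and uracil. Input and output plasmid inserts were Illumina-sequenced, and sequences with under 100 input reads were excluded.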

| Substance | amyloid nucleation score |
| --- | --- |
| ITNFIRWNTNV | inactive |
| ITRLNSMAMCYLIRFLS | inactive |
| IVADLHIHCEPRFSSHLTYE | inactive |
| IVCGISMIS | inactive |
| IVDFFGFNFCSWLSVFSDSR | 2.48 ± 0.056 |
| IVDNYVVAALLVVLS | inactive |
| IVESQRDASVLRSIPSIRIN | inactive |
| IVFSGNLLVGNGFGVLKRKT | 1.32 ± 0.14 |
| IVILPM | inactive |
| IVKTPVCSVTRRYPFSDRLL | inactive |
| IVLYRKVRPCTWAE | inactive |
| IVQVV | inactive |
| IVRLFLDVSSVTGHIWARCL | inactive |
| IVSLSLVMSTDLC | 0.834 ± 0.24 |
| IVTTQHMNGRSDYWITYSSV | -0.447 ± 0.74 |
| IVTYLLFDYHNPTRVSYYEC | inactive |
| IVVVAFKSPSV | 0.217 ± 0.32 |
| IVYLAVFRWGSMSKSRFGFD | inactive |
| IVYREVCVFVNM | 1.78 ± 0.063 |
| IWCQRYYAIGRRVPKASYDG | -0.179 ± 0.78 |
| IWFSLLVPDLPRIIGSLYIS | inactive |
| IWIMLHSCELWYADKADLDG | inactive |
| IWKGCSACFGKD | -0.222 ± 1.2 |

| Substance | amyloid nucleation score |
| --- | --- |
| IWSMWIYCRNGHH | inactive |
| IWVENQFDRRFLGVSMF | inactive |
| IYCTFAAFSHCQQWKNLFWR | -0.456 ± 1.1 |
| IYDAGFVYQIGTEEQVCNRV | inactive |
| IYFDVV | inactive |
| IYGTRGSIKSYDTHSGRCGR | inactive |
| IYIKCFNVSFLRSADWSKCA | inactive |
| IYIRRVRISVEATLRHCCVI | inactive |
| IYISFWR | 0.521 ± 0.2 |
| IYNRNGRF | inactive |
| IYRNKSTWWYWAWLVRNPML | inactive |
| IYSTWET | -0.698 ± 1.5 |
| IYSVYWDGMEPSIRTGWI | inactive |
| IYTLSTLLWFWSAWSILAVI | -0.197 ± 1.1 |
| IYTSFVTMERALSMFSPLFH | inactive |
| IYWLSDN | inactive |
| KALVGKYFKMCRTCDRYFYC | -0.416 ± 0.98 |
| KARLLMWS | 0.181 ± 0.28 |
| KCGIQLICMWFS | 1.47 ± 0.14 |
| KCNPVINFLWEMVLSDVFPL | inactive |
| KCRDLIRNVVPNSAIELDPS | inactive |
| KDALISYFYYDCMHCPQASR | inactive |
| KDCASGSRSTAIFAFCSGAF | 0.281 ± 0.27 |

| Substance | amyloid nucleation score |
| --- | --- |
| KDRHVSYFGLYKLGWRYTPS | inactive |
| KDTQWALYRNL | inactive |
| KEDLTSLVTLEKEALLVSDE | inactive |
| KFANYSPRDGTCGTDAHVSD | inactive |
| KFEGLF | inactive |
| KFGDPIRFWVTYYTNRSWSG | -0.732 ± 1.4 |
| KFGFLYPISCDVYGQDFLAL | inactive |
| KFKFVLILSEDAKAT | 1.23 ± 0.17 |
| KFLKLQVYASNGSSDPPRLD | inactive |
| KFNGCR | inactive |
| KFSSMGTVSLSGKSLYSDAV | inactive |
| KFVVDARFVTS | 1.33 ± 0.13 |
| KGCPVASMAQWNSCMCYVLV | 1.08 ± 0.12 |
| KGGCW | inactive |
| KGSFFLDCFGARRRIGLVKF | inactive |
| KGTLGCNSSSHVLIAVCNAM | inactive |
| KHVNLWSVGWFLGFLVWSRA | inactive |
| KHYDLGFQYFSR | inactive |
| KICVPSCSCTIFLDLFRY | 2.56 ± 0.08 |
| KILFILISFLWMLFLVWNFN | 1.48 ± 0.1 |
| KIQRYNILSGTCVFI | 1.51 ± 0.089 |
| KISFWVRERFNYRCTIGIEC | inactive |
| KISGNFKILDWVGNFSDGNS | inactive |

| Substance | amyloid nucleation score |
| --- | --- |
| KISNFLTSSLCMYGSLRWRV | 0.548 ± 0.2 |
| KKHIVY | inactive |
| KKISAQESEFVGSPFEYGGG | inactive |
| KKYLTNVDLNVSN | inactive |
| KLCGHIIYCVV | inactive |
| KLEREMADNDVARGGQLVLG | inactive |
| KLFGTKIVIVDVDSLCYMVL | inactive |
| KLFSYRRRPNINCLG | inactive |
| KLLLYMMYNRYLPM | 0.528 ± 0.32 |
| KLLSRYSTACMLRINLIRRY | inactive |
| KLQHIFLFFDRS | 1.1 ± 0.11 |
| KLRCNTIKGFCSHKTRMGRT | inactive |
| KLVICYCGYNHDCVVCTKRE | 1.56 ± 0.094 |
| KLVQLYTLKFFGLNCSKSVI | inactive |
| KLYIQCIYPDLVVINCDSWN | 2.39 ± 0.073 |
| KNDGKEF | inactive |
| KNDGTIVQM | inactive |
| KNLGLA | inactive |
| KNLHNTRRLCSVLLVCWMYK | inactive |
| KNQYSNSRLWYGALECHAPG | inactive |
| KNVFGSSFLLVVSYCNISAF | 1.95 ± 0.091 |
| KPCHASVET | inactive |
| KPCSLIRWPIKASMFSYVHS | inactive |

| Substance | amyloid nucleation score |
| --- | --- |
| KPMVYFQLRRLSKKVIYCAM | inactive |
| KQRVWR | inactive |
| KRCRFVVIFKSGIVTLWKLF | 0.568 ± 0.42 |
| KRDLGTNAFTMNRRCYQDTL | inactive |
| KREPKS | inactive |
| KRNSYTMFLA | inactive |
| KRPHV | inactive |
| KSALYADLVGYLGSACMGSR | inactive |
| KSHPLNSVPEKLMLVWRSWK | inactive |
| KSICELVIRRNFVSLNIATY | -0.336 ± 0.7 |
| KSKHTVMRWSLYSRRIMLVF | inactive |
| KSMSLKTFCGWGETQYVFFV | inactive |
| KSQMCNMMRRFYLRCIDLRL | inactive |
| KSSIMKGKLTHRGSQWFASQ | inactive |
| KSSSAYNRSDHGLMLDRRTQ | inactive |
| KSTSFTYFLLNIRLMGYCPC | 0.725 ± 0.16 |
| KTLVIYYTFKIGNILHIHLF | inactive |
| KTPLSSSCRKILIINTPRGM | inactive |
| KTYPTLCILCVDMLLRKRGV | inactive |
| KVCIHSIEIV | inactive |
| KVMTDIPDV | inactive |
| KVRSVDCRNTSNKDHW | inactive |
| KVVRVIVSEGNRVIKFTTMP | inactive |

| Substance | amyloid nucleation score |
| --- | --- |
| KVVVKEIQILVGSAGSKRMS | 0.638 ± 0.25 |
| KVVVTIRTVCRKKVDVICID | 0.071 ± 0.72 |
| KWFMVA | inactive |
| KWGIGMGPSHSGLISWGHNE | -0.448 ± 1.8 |
| KWPQLIWSGTYFKPFWSING | inactive |
| KYANILSFTPFNQQSI | inactive |
| KYCHIYFNICLWLAYSLSFL | inactive |
| KYCRRVYSSAETLYVLTHI | inactive |
| KYFRNLTVRKTKWE | inactive |
| KYNTCSEV | inactive |
| KYVAKFSSLILTFL | inactive |
| KYVYFMSVFCEVCSRAHRVV | 1.24 ± 0.1 |
| LAGIMCCEKVYCGPRDGVLG | 1.69 ± 0.12 |
| LAIVRRCWNLRYAGYEI | inactive |
| LAIYTVRSQFKVMCGVQSIR | 0.85 ± 0.16 |
| LAPFV | inactive |
| LAQMVNGRITDHYTLFRSRT | inactive |
| LASQELLFVRIRDSLAKCGV | inactive |
| LATLLTMWRGSLRYNPLKRL | -0.354 ± 0.48 |
| LAVFKFDRSLIWDTTVRVFH | inactive |
| LAVTFVHRLCWILLFWD | inactive |
| LCEEYYSINTWFRYVNVDIL | inactive |
| LCFNR | inactive |

| Substance | amyloid nucleation score |
| --- | --- |
| LCISVPNFSLAFLSLGWLCK | inactive |
| LCITIVSRWVVGVFHQMFYT | -0.219 ± 0.68 |
| LCIWNWFLSSNRMLRKLAD | inactive |
| LCKCLLIEFCYVVK | 0.772 ± 0.12 |
| LCLGFVHPVIPFWIAML | inactive |
| LCLLYIGTSTIYGHECPDKT | inactive |
| LCNSVAYPDSGTVRLLKREL | 0.005 ± 0.6 |
| LCNSVRNGNYYTGYGVTLYV | inactive |
| LCSYGVGWD | inactive |
| LCTSADYWSHKNRGRAYSRR | inactive |
| LCVIVTAVKGFTVPWHNFFL | inactive |
| LDAYLWNNCMYVYHLEPYSW | inactive |
| LDGTGCDGPLARKNCGRNAV | inactive |
| LDLIRY | inactive |
| LDLLMGV | inactive |
| LDLSLMHGMFTYFGVHMMMP | inactive |
| LDMPCILLYLRSNWGRFG | inactive |
| LDMSFSGYTRVLARSISTDA | 0.474 ± 0.65 |
| LDMSLACPRG | -0.051 ± 0.77 |
| LDNVKDVRYWIVCTQWWNRV | inactive |
| LDSAYRTVDGSICTTSYREH | inactive |
| LDSGFICMTELIGVVPH | inactive |
| LDWCAYWVSVISRWN | inactive |
